Here are results for 2 molecules from article PMC7488863, “Overexpression of transcription factor SlWRKY28 improved the tolerance of Populus davidiana × P. bolleana to alkaline salt stress”.

The target of series [1] is T1, GST-SlWRKY28 (Salix linearistipularis, UniProt A0A4D6JIT6 1-474). Nature of the series: EMSA; EMSA/gel-shift binding buffer (Beyotime kit, 5x stock, 2 uL per 10 uL reaction), 25 C, 20 min; salt and pH not stated. As to conditions: protein: recombinant; tags: N-terminal GST (pGEX-6p-3); label: biotin (both probe strands); blunt. (A gel shift assay detects complexes by their altered migration in electrophoresis.)

In series [2] the target is T1, GST-SlWRKY28. Nature of the series: competition; 10x and 50x unlabeled probe against Biotin-Pr; complex signal weak with cold probe; EMSA/gel-shift binding buffer (Beyotime kit, 5x stock, 2 uL per 10 uL reaction), 25 C, 20 min; salt and pH not stated. As to conditions: protein: recombinant; tags: N-terminal GST (pGEX-6p-3); blunt.

T1 sequence (A0A4D6JIT6 entry or part of it): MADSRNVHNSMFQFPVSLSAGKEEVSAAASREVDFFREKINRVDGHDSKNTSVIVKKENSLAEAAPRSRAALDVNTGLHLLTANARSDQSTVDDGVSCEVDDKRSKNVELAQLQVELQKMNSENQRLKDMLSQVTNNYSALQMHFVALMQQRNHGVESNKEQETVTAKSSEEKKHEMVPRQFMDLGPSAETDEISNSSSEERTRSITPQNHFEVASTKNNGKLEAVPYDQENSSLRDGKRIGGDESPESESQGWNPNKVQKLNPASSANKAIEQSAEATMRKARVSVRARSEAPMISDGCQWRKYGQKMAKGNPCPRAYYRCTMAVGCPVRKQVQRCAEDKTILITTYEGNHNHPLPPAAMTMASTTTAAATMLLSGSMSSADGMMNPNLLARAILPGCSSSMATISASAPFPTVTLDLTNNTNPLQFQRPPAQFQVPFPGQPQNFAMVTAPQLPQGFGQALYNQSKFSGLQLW

B1: W-box probe (Biotin-Pr) (dsDNA)
DNA 1: GGAACTTGACCTTGACCTTAGGGCTGCAGGAATTCG
DNA 2: CGAATTCCTGCAGCCCTAAGGTCAAGGTCAAGTTCC
For B1, the binding result with GST-SlWRKY28 [1] was “binds”.

B2: W-box cold probe (Cold-Pr) (dsDNA)
DNA 1: B1 DNA 1
DNA 2: B1 DNA 2
Consider B2, for which the binding result with GST-SlWRKY28 [2] was “binds”.
